Results from the supplement of paper PMC10567573.

B1: ZNF649 (parent)
chain: MTKAQESLTLEDVAVDFTWEEWQF
B2: LOXL2 (parent)
chain: YVEVKEGKTWKQICDKHWTAKNSR

Variants of: B1
Assay: protein stability index of a GFP-peptide fusion (GPS, HEK-293T) (PSI 1-6); higher = more stable
Details: c terminus: a fixed tail appended
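Note: lentivirally expressed fusions sorted by FACS into six bins by GFP to DsRed ratio, PSI derived from sequencing read proportions per bin multiplied by bin number.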

Protein stability index, by site and new letter:
S7: P 3.14, I 3.1, M 2.69, Q 3.68, N 3.39, V 2.5, T 3.67, L 2.43, K 3.01, R 3.55, W 1.72, Y 2.54
Q23: F 2.66, C 2.26, Y 2.38, L 2.05, E 3.46, R 3.56, H 2.02, V 2.08, S 3.06, T 3.1, A 4.2, I 1.97, M 2.72, N 2.74, K 3.28, D 3.51, G 2.87, P 3.22
D12: Y 4.33, I 2.95, H 2.68, G 2.55, P 3.05, V 1.92, Q 2.84, S 2.13, N 2.23, K 2.7, F 3.77, C 2.65, R 2.85, A 1.72, T 2.2, L 3.49, M 2.14, E 3.23
D16: R 2.22, E 1.85, P 4.02, M 2.34, F 2.94, N 3.77, H 3.23, K 2.5, S 3.12, V 2.29, C 2.89, L 2.73, A 3.34, I 2.52, G 3.13, Q 2.92, Y 2.64, T 3.32
F24: V 3.77, R 4.34, M 4.49, C 3.99, H 4.01, G 4.45, E 5.32, S 3.9, W 2.88, N 4.35, A 4.61, P 3.9, K 4.87, I 2.51, L 3.83, T 3.94, Y 3.4, D 4.57
E11: M 2.14, R 2.39, Y 1.28, K 2.62, N 3.28, A 2.39, F 1.44, G 2.98, W 2.13, T 2.86, H 2, D 3.57, I 2.25, V 1.43, Q 3.9, C 2.12, S 2.83, L 1.56, P 2.69
E21: H 1.53, Q 3.08, S 2.11, N 1.54, L 1.23, Y 1.95, F 3.42, V 2.81, K 1.95, A 2.12, G 1.49, C 1.58, R 3.17, D 3.36, W 2.72, P 1.89, T 2.21, M 2.25
F17: W 3.31, S 4.52, E 5.01, R 3.61, P 4.43, K 4.72, C 4.1, I 4.25, L 4.03, G 3.81, D 4.75, H 3.94, A 4.42, V 4.05, N 3.64, M 4.17, Y 3.76, Q 4.51, T 3.95
L10: T 4.05, K 4.34, W 3.19, E 4.38, D 4.91, P 4.11, N 4.29, A 3.8, S 4.07, F 3.61, Y 3.24, H 4.42, V 3.01, I 2.81, Q 4.13, R 3.88, M 3.44, C 4.05, G 4.14
E20: S 2.65, F 1.44, Y 2, A 2.48, L 1.3, T 2.5, Q 2.32, W 2.28, P 2.76, V 3.37, K 2.51, I 1.87, R 2.06, D 3.14, C 2.48, M 2.57, H 2.22, N 2.41, G 2.17
T18: L 2.26, K 2.48, P 3.16, D 4.1, C 2.64, M 2.39, A 3.87, F 1.79, R 2.17, V 1.95, H 2.63, W 1.51, N 3.47, S 3.15, Y 1.36, E 3.32, Q 2.75, I 2.41, G 3.37
T9: Y 2.41, I 2.71, E 3.94, R 3.59, L 2.54, A 3.37, G 3.49, F 3.35, C 3.52, S 3.43, D 3.71, M 3.16, V 3.16, H 3.81, N 4.28, P 4.17, K 3.38, W 2.54, Q 3.58
V13: A 3.98, H 3.88, E 4.25, W 2.36, G 3.64, T 4.11, Q 4.18, D 4.11, L 3.23, P 4.15, C 3.37, I 3.47, M 3.54, K 4.16, N 4.33, R 3.45, S 4.69, F 2.54, Y 3.17
W19: F 3.19, Y 3.61, C 3.85, Q 4.43, E 4.66, I 2.56, V 3.68, M 3.77, L 3, R 4.07, T 4.07, A 4.51, P 4.43, G 4.61, S 4.29, K 3.58, N 4.37, H 3.6, D 4.65
A14: P 4.12, T 2.92, F 2.08, M 2.46, W 3.29, I 1.88, Y 1.65, H 3.12, Q 3.61, D 4.04, S 3.06, L 1.74, N 2.92, C 2.4
L8: M 3.62, V 3.59, I 3.05, R 3.79, A 4.22, C 3.42, S 4.47, F 2.5, D 4.41, G 4.11, E 4.39, K 4.31, T 3.93, P 3.58, N 4.42, Y 2.7, H 4.05, W 2.23
V15: M 3.77, P 4.07, G 4.07, K 3.95, T 4.1, L 2.56, I 2.53, Q 4.44, N 3.87, D 3.77, A 3.92, Y 3.91, F 2.48, E 3.94, R 4.16, H 4.33, S 3.35, W 2.59, C 3.71
W22: I 3.54, C 3.12, R 3.69, L 3.62, S 4.78, P 4.4, Y 3.44, D 4.64, F 3.41, M 3.72, N 4.27, H 4.13, A 4.17, Q 4.16, E 4.52, T 4.28, K 4.76, V 3.96, G 4.33

Variants of: B2
Assay: as above
Details: c terminus: a fixed tail appended

Protein stability index, by site and new letter:
Y1: F 3.57, K 3.84, H 3.14, E 3.46, G 3.72, D 3.52, A 3.4, C 3.36, I 2.68, L 3.34
